The source of these data is patent KR20240094169A (dated 2024).

T1: BCMA (B-cell maturation antigen) expressed on multiple myeloma H929 cells (UniProt Q02223 1-184, limits assumed)
T1 construct: whole, on cells; also called TNFRSF17; CD269
T1 sequence (looked up): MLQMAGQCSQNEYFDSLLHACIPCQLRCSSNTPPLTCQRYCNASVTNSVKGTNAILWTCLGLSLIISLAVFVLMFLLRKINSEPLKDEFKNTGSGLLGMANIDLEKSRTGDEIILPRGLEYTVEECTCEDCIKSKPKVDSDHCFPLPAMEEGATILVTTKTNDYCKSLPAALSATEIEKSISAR

B1: 항-BCMA sdAb No.7 (VHH)
VHH: KLEESGGGSVQTGGSLRLTCAASGSIFSSGFMAWFRQAPGKEREFVSGISWRGDSTGYADSVKGRFTISRDNAKNTVDLQMNSLKPEDTAIYYCAARGTDTAYWGQGTQVTVSS
notes: Camel-derived single-domain antibody from a phage library; also called anti-BCMA sdAb No.7; 항-BCMA No.7
B2: 항-BCMA sdAb No.11 (VHH)
VHH: KLEESGGGSVQTGGSLRLTCAASGSISRLDNMGWFRQAPGKERELVAAINSKSNKTNYADSVKGRFTISRDNAKNTVDLQMNSLKPEDTAIYYCANWSFDKHRAYWGQGTQVTVSS
notes: Camel-derived single-domain antibody from a phage library; also called anti-BCMA sdAb No.11; 항-BCMA No.11
B3: 항-BCMA sdAb No.19 (VHH)
VHH: KLEESGGGSVQTGGSLRLTCAASGIIFSDDAIGWFRQAPGKERELVSLIDSKSSTYYADSVKGRFTISRDNAKNTVDLQMNSLKPEDTAIYYCNDHKRRQAMEYWGQGTQVTVSS
notes: Camel-derived single-domain antibody from a phage library; also called anti-BCMA sdAb No.19; 항-BCMA No.19

For the test, the target named is T1, BCMA (B-cell maturation antigen) …. Briefly: flow cytometry on H929 cells, 1 ㎍ sdAb, PE-conjugated secondary antibody. A general note: A flow cytometer gives signals particle by particle.
For B1, the binding result is listed as “binds”.

Turning to B2, the binding result is “binds”.

Consider B3, for which the binding result is listed as “binds”.
